# Measured values reported in the supplement of paper PMC9112550, “Optimization of the antimicrobial peptide Bac7 by deep mutational scanning” (BMC Biology, 2022).
# System: Escherichia coli TOP10
# Test: shrunken log2 fold change of peptide-encoding DNA abundance (4.5 h post-induction vs induction); higher = less antimicrobial activity (less host growth inhibition)
# Conditions: time post-induction: 4.5 h; library: site-saturation at positions 5, 18, 19, 20
# 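Also: peptides expressed intracellularly from a pBAD plasmid library in pooled LB shake-flask culture, induced with 0.3% L-arabinose, DNA abundance read by NGS, three biological replicates, DESeq2 with apeglm shrinkage.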
row,Sequence,shrunken log2 fold change
1,RRIRRRPPRLPRPRPRPNSFPRP,-0.29
2,RRIRRRPPRLPRPRPRPNTAPRP,0.0812
3,RRIRRRPPRLPRPRPRPNVRPRP,-0.0448
4,RRIRRRPPRLPRPRPRPNVTPRP,0.0871
5,RRIRRRPPRLPRPRPRPPCEPRP,0.195
6,RRIRRRPPRLPRPRPRPPCIPRP,0.156
7,RRIRRRPPRLPRPRPRPPDHPRP,0.762
8,RRIRRRPPRLPRPRPRPPFMPRP,0.22
9,RRIRRRPPRLPRPRPRPPGEPRP,0.705
10,RRIRRRPPRLPRPRPRPPGNPRP,0.428
11,RRIRRRPPRLPRPRPRPPHEPRP,0.449
12,RRIRRRPPRLPRPRPRPPHFPRP,0.897
13,RRIRRRPPRLPRPRPRPPKEPRP,0.0931
14,RRIRRRPPRLPRPRPRPPLAPRP,1.18
15,RRIRRRPPRLPRPRPRPPMCPRP,0.622
16,RRIRRRPPRLPRPRPRPPMGPRP,0.554
17,RRIRRRPPRLPRPRPRPPMIPRP,0.0196
18,RRIRRRPPRLPRPRPRPPNRPRP,0.4
19,RRIRRRPPRLPRPRPRPPPYPRP,0.366
20,RRIRRRPPRLPRPRPRPPQNPRP,1.4
21,RRIRRRPPRLPRPRPRPPSEPRP,0.974
22,RRIRRRPPRLPRPRPRPPTAPRP,0.569
23,RRIRRRPPRLPRPRPRPPVSPRP,0.332
24,RRIRRRPPRLPRPRPRPPWQPRP,2.01
25,RRIRRRPPRLPRPRPRPQASPRP,0.0463

row,Sequence,shrunken log2 fold change
1,RRIRRRPPRLPRPRPRPQAVPRP,0.331
2,RRIRRRPPRLPRPRPRPQCEPRP,0.153
3,RRIRRRPPRLPRPRPRPQCQPRP,0.0393
4,RRIRRRPPRLPRPRPRPQDPPRP,0.376
5,RRIRRRPPRLPRPRPRPQEGPRP,-0.0768
6,RRIRRRPPRLPRPRPRPQFAPRP,0.0495
7,RRIRRRPPRLPRPRPRPQFFPRP,-0.259
8,RRIRRRPPRLPRPRPRPQFLPRP,-0.0792
9,RRIRRRPPRLPRPRPRPQFQPRP,0.00665
10,RRIRRRPPRLPRPRPRPQGQPRP,-0.0135
11,RRIRRRPPRLPRPRPRPQHAPRP,0.314
12,RRIRRRPPRLPRPRPRPQMCPRP,0.0865
13,RRIRRRPPRLPRPRPRPQNIPRP,-0.33
14,RRIRRRPPRLPRPRPRPQNQPRP,0.0537
15,RRIRRRPPRLPRPRPRPQRQPRP,0.175
16,RRIRRRPPRLPRPRPRPQTWPRP,0.345
17,RRIRRRPPRLPRPRPRPQVDPRP,0.237
18,RRIRRRPPRLPRPRPRPQVFPRP,0.408
19,RRIRRRPPRLPRPRPRPQVQPRP,0.0152
20,RRIRRRPPRLPRPRPRPQVWPRP,0.409
21,RRIRRRPPRLPRPRPRPQWKPRP,0.016
22,RRIRRRPPRLPRPRPRPRAHPRP,0.592
23,RRIRRRPPRLPRPRPRPRDAPRP,0.736
24,RRIRRRPPRLPRPRPRPRDQPRP,0.341
25,RRIRRRPPRLPRPRPRPREAPRP,0.254

row,Sequence,shrunken log2 fold change
1,RRIRRRPPRLPRPRPRPRFDPRP,0.121
2,RRIRRRPPRLPRPRPRPRFQPRP,0.555
3,RRIRRRPPRLPRPRPRPRHGPRP,0.197
4,RRIRRRPPRLPRPRPRPRKGPRP,0.215
5,RRIRRRPPRLPRPRPRPRLFPRP,0.593
6,RRIRRRPPRLPRPRPRPRLPPRP,0.663
7,RRIRRRPPRLPRPRPRPRMRPRP,0.744
8,RRIRRRPPRLPRPRPRPRNIPRP,-0.0349
9,RRIRRRPPRLPRPRPRPRNLPRP,-0.0397
10,RRIRRRPPRLPRPRPRPRPLPRP,0.559
11,RRIRRRPPRLPRPRPRPRPRPRP,0.86
12,RRIRRRPPRLPRPRPRPRPVPRP,0.882
13,RRIRRRPPRLPRPRPRPRQRPRP,0.636
14,RRIRRRPPRLPRPRPRPRQTPRP,0.0881
15,RRIRRRPPRLPRPRPRPRRIPRP,0.251
16,RRIRRRPPRLPRPRPRPRRMPRP,0.206
17,RRIRRRPPRLPRPRPRPRTLPRP,0.311
18,RRIRRRPPRLPRPRPRPRVTPRP,0.766
19,RRIRRRPPRLPRPRPRPRVWPRP,0.686
20,RRIRRRPPRLPRPRPRPRWMPRP,0.25
21,RRIRRRPPRLPRPRPRPRWQPRP,0.636
22,RRIRRRPPRLPRPRPRPSCRPRP,0.0338
23,RRIRRRPPRLPRPRPRPSENPRP,-0.0437
24,RRIRRRPPRLPRPRPRPSFEPRP,0.234
25,RRIRRRPPRLPRPRPRPSGIPRP,-0.0479
